From publication PMC3581536

Molecular target: MazFa tagged with 6 histidine at its C-terminus (Anabaena sp. PCC 7120)
Test: pull-down; MazEa and MazFa-His6 co-expressed in E. coli BL21(DE3)(pJS798); co-purified on Ni2+-NTA His.Bind resin under native conditions; 15% SDS-PAGE, bands identified by MALDI-TOF MS, densitometry with Image J

stoichiometry N (MazEa per MazFa (molar ratio)): 0.5
Substance: MazEa (natural protein)
